Assay results reported in patent US20150351390A1, “COMPOSITIONS AND METHODS FOR AUXIN-ANALOG CONJUGATION” (PIONEER HI-BRED INTERNATIONAL, INC., priority 2012, published 2015).

How the values were obtained:
Format in all cases: biochemical
[1] = LC-MS assay of GH3 conjugation of dicamba with Asp or Glu; conditions: LC-MS; for Detected auxin conjugates: Dicamba-Asp: dicamba with Asp; for Detected auxin conjugates: Dicamba-Glu: dicamba with Glu
In short: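 Dicamba–amino acid (Asp or Glu) conjugates formed by purified his-tagged GH3 enzymes were detected by LC-MS on an AB Sciex 4000 QTrap with Shimadzu Nexera UHPLC and a Phenomenex Luna 3 μm Phenyl-Hexyl column, after 20× dilution of the supernatant in water. Standards were used to quantify conjugates. Protein concentration was determined by Bradford assay.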

[2] = LC-MS assay of GH3 conjugation of IAA with Asp or Glu; conditions: LC-MS; for Detected auxin conjugates: IAA-Asp: IAA with Asp; for Detected auxin conjugates: IAA-Glu: IAA with Glu
In short: (§1)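 N-terminal His-tagged GH3 homologs, expressed in E. coli C41(DE3) and Ni-NTA purified, at 44 to 164 μg/mL incubated 3 h at 30 °C in 20 mM Tris-HCl pH 8.0, 5 mM MgCl2, 1 mM DTT, 5 mM ATP, 5 mM auxin (IAA, 2,4-D or dicamba) and 5 mM Asp or Glu. Conjugates quantified by LC-MS against standards after MeOH precipitation; kinetics from Michaelis-Menten fits of initial velocities.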

[3] = LC-MS assay of GH3 conjugation of 2,4-D with Asp or Glu; conditions: LC-MS; for Detected auxin conjugates: 2,4-D-Asp: 2,4-D with Asp; for Detected auxin conjugates: 2,4-D-Glu: 2,4-D with Glu
In short: as §1

Molecule | Detected auxin conjugates: Dicamba-Asp [1] | Detected auxin conjugates: Dicamba-Glu [1] | Detected auxin conjugates: IAA-Asp [2] | Detected auxin conjugates: IAA-Glu [2] | Detected auxin conjugates: 2,4-D-Asp [3] | Detected auxin conjugates: 2,4-D-Glu [3]
BjACC38383.1: GH3 protein, accession ACC38383.1 (protein, listed as Brassica juncea) MIIISYYNEEEKGKVLEDLTWNVKQIQDDLLKEILTLNSGTEYLQNFLHGSSAKELFKKNLPIVTYKDVKPYIDRVANGESSNIISTLPITNFFNSSGTSGGANKILPSNSKYLDGSAFSTDLLAHVIRKHVKGVERGKGMLFFLTGHDTKTPGGFPIEDGISWYLKSDYFKNRPSTWFYSYTSPDEVMLGSDLKENLYCHLLCGLVQRDEVTRIGSTFASGMVRVIKVLEDSWKELCSNIRSGNLSEWITDSGCRNSVSLVLGGQPRHKLSDEIESICSQKSWKGIMKKLWPQTLCIEAIATGSMAQYVPTLKHYSGDVPLVSTIYASSESMFGINTDPLCQPENTSYTLMPNISYFEFIPTEGGNGDVVDLADVKLGCSYQLLVTNLWGLYRMRIGDIVKVTGFHNKAPKFRVIGRENTLLSIDTDRTTEEYLLKAVNRARLVLESSDLRLVAFTSYADISSSPGHYVIYWEVKTKEEDMKELDEKTFLECCSVMEDTLDEEYMYCRANEFIGPLEIRVVNDGTFDSLMNLSISKGASITQYKYWRQMWLLDSSVLSEHLMCLSHDIWSKKRGRNVCVLSVLSWFLLTIF | No | No | Yes | No | No | No
GmGH3-15: GH3 protein, accession XP_003540050.1 (protein, Glycine max) MPEAPRDYNLFEQNKKTLEFIEDVTANADQVQKRVLSEILSNNANVEYLKRHDLHGQTDRETFKKLLPVITYEDIQPDINRIANGDTSPILCSKPISEFLTSSGTSGGERKLMPTIEEELGRRSLLYSLLMPVMSQFVPGLEKGKGMYLMFIKSEAKTPGGIVARPVLTSYYKSSYFKDRPYDPYTNYTSPNETVLCPDSYQSMYSQLLCGLCQHKEVLRVGAVFASGFIRAIRFLEKHWPLLCHDIRTGTINNTITDLSVRDAVMKILKPDPRLGDLIQSECGKSSWQGIITRLWPNTKYVDVIVTGTMSQYIPTLDYYSNGLPLVCTMYASSECYFGVNLNPLCKPSEVSYTLIPTMCYYEFLPVNRSNGVSHDSLHTPRSLNEKEQQELVELVDVKLGQEYELVVTTYAGLYRYRVGDVLRVAGFKNKAPQFNFVCRKNVVLSIDSDKTDEVELQNAMKNAVTHLVPFDASVSEYTSYADTTTIPGHYVLYWELSLKGSTPIPPCVFEDCCLAIEESLNSVYRQGRVSDKSIGPLEIKIVEQGTFDKLMDYAISLGASINQYKTPRCVKFAPVVELLNSRVVEKYFSPKCPKWVPGHKQWINQN | No | No | Yes | Yes | Yes | Yes
Br040953: GH3 protein, Bra040953 (protein, listed as Brassica rapa) MMIPSYDPNDTEAGLQLLEDLTTNADAIQQQVLHQILSQNSETEYLRSFLDGESCNIQENFKNKAPVVNYEDIKPFIQRISDGDSSDILSAQPITELLTSSGTSGGKPKFMPSTAEELDRKTFFYNMLVPVMNKFVNGLDEGKGMYLLFIKPEIKTPSGLQARPVLTSYYKSEQFKNRPFNKYNVITSPNDAILCEDSQQSMYCQLLCGLVQRSDVLRLGAIFASAFLRAVKFLENHFTELCADIRTGTVASWITDSGCRDSVLSILNGPNQELADEIEALFNAKSREGILKRIWPKTKYIEVIVTGSMAQYIPTLEFYSGGLPLVSVMYASSECFFGLNINPLCKPSDVSYTLLPNMAYFEFLPVDDKSHEETHLESRSTDDVSLTDKDRIVDLVSVEIGRYYELIITTFAGLYRYRVGDILKVTGFHNKAPQFSFVERRNVVLSIDTDKTSEEDLMKAVTQAKLNHLQGLFLLTEYTSYADTSSIPGHYVLFWELKPRYDNDPPKLDKKMMEDCCSEVEDCLDYVYRRCRNKDRSIGALEIRVVSLGTFDALMDFSISQGSSVNQYKTPRCVKSGGALQILDSRVIGRFFTKRVPQWEPLGLDS | No | No | Yes | Yes | Yes | Yes
GmGH3-14: GH3 protein, accession XP_003516612.1 (protein, Glycine max) MRPYPYVFPGPHVLPAKSTTEVVLIFCPLRYPGPLPLSFPFILSILILPSLIMALQFIEQVTKNTDSVQERVLSEILTQNAETEYLKRFALNGATDRDTFKSKVPVVTYEDLQPDIERIANGDRSPILCAHPISEFLTSSGTSAGERKLMPTIHEEMDRRQLLYSLLMPVMNQYVSDLDKGKALHFLFIKAEAKTPGGLMARPVLTSYYKSEQFRKRPFDPYNVLTSPNEAILCPDSFQSMYTQMLCGLIMRHEVLRVGAVFASGLLRAIRFLQLNWEQLSHDILTGTLNPKITEPSIKERMSKILKPDPELAAFIKSECSGENWERIIVRIWPNTKYLDVIVTGAMAQYIPTLDYYSGGLPKPCTMYASSECFFGLNLKPMSEPSDVSYTILPNMGYFEFLPHDDSSPITLSKDSPPRLVELADVELGKYYELIITTYAGLCRYRVGDILQVTGFHNSDPQFRFVRRKNVLLSIDSDKTDESELQKAVENASELLKEFNTSVAEYTSFADTKSIPGHYVIYWELMMKDSSHPPTNQVLNQCCLVMEESLNSVYRQGRVADNSIGPLEIRVVKNGTFEELMDYAISRGASINQYKVPRCVSFTPIMELLDSRVLSFHFSPAAPHWTPERRR | No | No | No | No | No | No
Gm03g30590.1: GH3 protein, Glyma03g30590.1 (protein, Glycine max) MMTDEELLQKLEDLTKNAQHHHLETLRSILLHNGIVHYLQSFKKGSLLHLDPSTFARVVPLSTYEDYVDYINQMAEGKDDPFLSVDPLRCFFYSSGTSSSTMKPKLIPYFDSSLSKAASFIGHRGSVAVRQRLFPPRPEVNKILWFLYADNITTTKCGLKVMAASTYPLQSGNATPQQLAAFSSPLEVILATNVENQMYCHLLCGLRNLDLIDGIATPYAIGLIKAFGFLESKWEQLCDDLDHGFPCNEISEGAMREAVTNTLGGPQPELANRIRLICEGNNWGGIVYRLWPNIRYIRCVTTGSMKQYYQKLKYYAGEVPILGGDYFASECCVGLNLDIMQPPETTRFVMLPTFAYFEFLPFNINEDNDASKEAVDYSSVEVGKMYEVVVTTYRGYYRYRLGDIVRVVGFYNSSPLVEYVMRAPKTPAEIVTEKDLISAVENFQLALRGAMRIEIVEFASFLDQESMPKQLKVFVEVQEESDFLEDKLEESVRVLRSCISSLESGLGAIYKVQKDKGQLRSLRIFIIRPGAFDQLSELAIKNGTSASQYKPPKIIRNHEVVKLLEKLAFVAVSFDG | No | No | Yes | No | Yes | Yes
